Assay in all cases: purified protein
What all share (settings): apparent, sulfate donor, acceptor phenol 100 mM, Tris/HCl 50 mM pH 8.0, 30 °C

Substrate in series [1]: O=[N+]([O-])c1ccc(OS(=O)(=O)O)cc1
Type of series: biochemical, Hungatella effluvii.

Substrate in series [2]: O=[N+]([O-])c1ccc(OS(=O)(=O)O)cc1
Format: biochemical, Desulfosporosinus orientis.

Substrate in series [3]: O=[N+]([O-])c1ccc(OS(=O)(=O)O)cc1
Format: biochemical, Dehalobacterium formicoaceticum.

Substrate in series [4]: O=[N+]([O-])c1ccc(OS(=O)(=O)O)cc1
Format: biochemical, Desulfitobacterium hafniense.

Substrate in series [5]: O=[N+]([O-])c1ccc(OS(=O)(=O)O)cc1
Type of series: biochemical, Desulfitobacterium dehalogenans.

Consider 5 proteins from paper PMC11576661, “Biocatalytic sulfation of aromatic and aliphatic alcohols catalyzed by arylsulfate sulfotransferases” (Applied Microbiology and Biotechnology, 2024).

B1: ASSTHeff (Hungatella effluvii) (protein)
chain: MIRYEKKNSLITQQAEAEQKFLETFEAGAYTASSPLVVRNPYLISPLSAMILFKTAVKQEVTLTVKGKEPEGDISHTFPADTIHILPVYGLYADCENTVELILSGGERETVMIKTEPLPPEVPVPTFCKGSGAHMGDNVIFLTQTSKADALACDYRGDVRWYLTVNVCFDMKRLANGHLLVGTDRLIKLPYYVSGVYEMGVHGKIYREYRLPGGYHHDTFEMEDGNILMLSQIPDRDTVEDVLVLVNRQTGAIVRTWDYREILPYDCQTTWSGSASAHDWFHNNAVWYDKKTDSITLSGRHQDAVINIDFKTGALNWILGDPEGWPEEYVEKYFFRPISEPFEWSYEQHGVVVCPDGDIMMFDNGHYRSKLKAHYSKAKDSYSRGVRYHIDREARTIEQVWQYGKERGADFFSPYICNVEYYDEGRYMVHSGGIAYKDGEPLEGLGSMDGTGEGCTLNAITCELVNDEVVYELHVPSNVFRAEKLPMYYAGETAELGAGKTLGSMSRTGEFETEIPAVCTGDLIPEHYEASVTEEEDRILFNATFEKGELAMLLLEEEDGKAHRYYINTSAAKNFEAMCVGTFLKNDPRNVDVYVNKCGMSKNVKVRVLLEDKIYETGVEIRME
notes: recombinant from E. coli BL21(DE3), C-terminal His-tag, IMAC purified, about 70-76 kDa
Consider B1, for which, in “purified protein [1]”, the Km amounted to 2100 µM, the Vmax came out at 39.8 µmol/min/mg, the kcat is 46.9 s⁻¹ and the specificity constant (kcat/Km) is 22300 M⁻¹ s⁻¹.

B2: ASSTDor (Desulfosporosinus orientis DSM 765) (protein)
chain: MSVKFKSFDHIITEQYQAEQAFLTEYQKGEYSFNNPYVKLNPYIIAPLTALVMFKTAQPTTVTITVKGKDKNGDICFNFPTAIEHLIPVYGLYANYANKVELALGDGKTNVITIQTEAAPEIVKLPTQINTTADYFEDNIMFVSPTSTAATAGYDYNGDVRWYGSLNFAFDIKRAKNGRLLLGTHRLVTPPYHTTGLYEMGMIGKIYKEYRLPSGYHHDQFEMEDGNLLILSQDLPRGTVEDMCVLVDRKTGQIIKSWDYQKVLPTNAGGSGSQDSHDWFHNNAVWYDKKTNSLTLSGRHQDIIINLDFETGALNWIIGDPEGWPKELVDNYFFKPVGKGEFDWQYEQHACVVCPNGDIMAFDNGHWRSKIKENYVTANDNFSRGVRYRIDTKKMEIEQVWQYGKERGAEFFSTYICNVEYYDEGHYLIHSGGIGSIDGEALNKPPVQFRGEDEKKVVFNSITVELKDDVMMYEMQLPANYYRAEKLKLYAAEDVLTLGKGELLGTLGVTEEFTTIPPAEEGGMVPEKYNVKLGLEEDRLIFKATFEKGQMVLLQLEGETTHSYFVPTTKRPFLAMCVGTFQESDDRAVEFPVSREGLAGGFRVSLIVDAYKYETGVTIKL
notes: as for B1
For B2, in the series “purified protein [2]”, the Km is 1000 µM, the Vmax is 0.5 µmol/min/mg, the kcat was determined as 0.6 s⁻¹ and the kcat/Km is 600 M⁻¹ s⁻¹.

B3: ASSTDfor (Dehalobacterium formicoaceticum) (protein)
chain: MNAIKSEQVPHIIHQQEKLEKAFLAEFAAGGYTLYNPLVKINPYGICPLTAMVLFETPVATEATVVVRGKEHLGDIRHTFPAGKKHILPIYGLYADYENKIELIMANGQKNTIKIQTEPLHTDVPVATSIKTTPEYMGNNLMFLTAAMRSMPVGYDYAGDIRWYATKNFAFDLKRLPNGHILVGTERLVKMPYFTTGLYEMAFSGKIFKEYVLPSGYHHDQFPMEDGNILVLTFDFYSGTVEDMCVLLDAKTGEVLKSWDYKKVLPQDVAGSGSQDEHDWFHNNAVWYDKKTNSLSLSGRHQDAVINIDYETGELNWIIGDPEGWPKEMVDKYFFTPVGDGDFDWQYEQHACVVLPDGDIMLFDNGHFRAKNKENYWPNSKNFSRGVRYRIDTEKMTIKQVWQYGKERGAEFFSPYICNVEYYNEGHYLVHSGGIGYENGKPCEGMAVMKTMQPEFKDNVYTFNSITCELKDDVLMYELQVPANCYRAEKLPLYYANETAELGAGEILGNLIKTEETKMKIKAEETGALVPDHFQASITEEEDRFLFNAIFDAGEMAQLLLVNEAGEIKRYPINTVPQAFQAMCVGTFQKADPRNIDTFINKIGLSGNYQVKLVAEEKVYETGVTIKA
notes: as for B1
Turning to B3, in “purified protein [3]”, the Km was 500 µM, the Vmax worked out at 5.3 µmol/min/mg, the kcat was 6.3 s⁻¹ and the kcat/Km was found to be 12600 M⁻¹ s⁻¹.

B4: ASSTC (Desulfitobacterium hafniense) (protein)
chain: MVDYEYCPHIITKQNELEKAFMEKFEAGNYSLENPLVILNPYGVAPLTAMILFNTPIACEAKIIVKGKEHPGDIQHTFPAATRHILPVYGLYGGYKNTIKIILSTSSSNTITIQTEPLPKSVAIPSSIKTTSEYMGNNLMFLSPSMASLTVGYDYAGDVRWYCSLNVCFDLKRMPNGHLLIGTGRLVKVPYYTSGLYEMAFSGKIFKEFILPGGYHHDQFVMEDGNLLVLTQDFYADTVEDVCVLIDPHSGDILKKWDFKNILPQDVAGSGTQTAHDWFHNNAVWYDNRTNSLTLSGRHQDVIINIDYETGGLNWMIGDPEGWPQELVDKYFFTPAGDGEFDWQYEQHGCVVLPDGDIMVFDNGHYRSKNKENYRLNKDNFSRGVRYRIDTERMTIQQIWQYGKERGADFFSPFICNVEYYDEGHYMVHSGGIGYENGKPCEGLAVGKSKNPKFKDNVYTLNSITCELVNDELVYELQVPANFYRAEKLPIYYANEVAELCEGQRLGQFVETQTTRMKIKALETKEPIPEHYQAKIVEEEDRFCLNAIYESGETAQLLLVSESDEILRYPINTVAQAYGAMCVGTFQKSDPRNVDTFVTKTGLSGKYQVKLVAEDKIYETGVTISA
notes: as for B1
For the protein B4, in “purified protein [4]”, the Km came to 200 µM, the Vmax worked out at 0.6 µmol/min/mg, the kcat was 0.7 s⁻¹ and the kcat/Km was 3600 M⁻¹ s⁻¹.

B5: ASSTDdeh (Desulfitobacterium dehalogenans ATCC 51507) (protein)
chain: MMNPIKSEQIPHIIHRQKDFEEAFLAEFSAGHYTLANPLVELNPYEICPLTAMILFETPVSTEATIIVRGKEHPGDIRHTFPANKKHILPIYGLYADYENKVEIVLANGQRNTVTIKTGPLHPDVPVATSIKTTSEYMGNNLMFLTAAMKAMPVGYDYAGEVRWYATRNFAFDLKRIPNGHILIGTERLVKMPYFTTGLYEMAFSGKIFKEYRLPSGYHHDQFVMEDGNILVLTFDFYSGTVEDMCVLLDAETGEILKSWDYKKVLPQDVAGSGSQDAHDWFHNNAVWYDRKTNSLSLSGRHQDAVINIDYETGELNWIIGDPEGWPQDMVDQYFFTPVGEGEFDWQYEQHACVVLPDGDIMLFDNGHFRAKNKENYLPNSQNFSRGVRYRIDTEKMTIEQVWQYGKERGAEFFSPYICNVEYYDEGHYLVHSGGIGYENGETCEGMAVMKVLQPEFKDNVYTFNSITCELKDDVLMYELQVPANCYRAEKLPLYYAYETAELGEGKILGNLVETQETKMKIKAVETGERVPDHYEASITEEEDRILLNAIFDAGELAQLLLVDGDGGVKRYPISTVPQAFQAMCVGTFQKADPRNIDVYINKTGLSGKYQVKLIAEEKLYETGVSITA
notes: as for B1
With B5, in “purified protein [5]”, the Km worked out at 400 µM, the Vmax was determined as 21.2 µmol/min/mg, the kcat was determined as 25.3 s⁻¹ and the kcat/Km amounted to 63200 M⁻¹ s⁻¹.

As usually defined, the Km is the substrate concentration at which the rate is half of its maximum. A word on the Vmax: it is the top rate of the reaction or transport when substrate is in excess. For orientation: kcat means the maximal rate divided by the concentration of active sites. As usually defined, the kcat/Km is the turnover number divided by the Michaelis constant.
